The values that follow come from publication PMC2923636 (Structure (London, England : 1993), 2009).

This test deals with T1, AIRE-PHD1 P326L mutant (human, UniProt O43918 293-346, P326L).
T1 sequence (looked up): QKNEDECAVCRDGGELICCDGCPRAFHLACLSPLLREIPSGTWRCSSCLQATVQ
The test is described as follows: NMR titration.

Take ARTKQTARKST (peptide, UniProt P68431 2-12, looked up) [unmodified histone H3 peptide (residues 1-11)]: the binding result is given as “binds”.
